Laboratory results reported in patent publication US9580731B2, “Methods of producing 7-carbon chemicals via c1 carbon chain elongation associated with coenzyme B synthesis” (INVISTA North America S.á r.l., priority 2012, dated 2017).

Legend:
Format in all cases: biochemical
[1] = Carboxylate reductase activity assay, pimelate to pimelate semialdehyde (NADPH consumption); conditions: 2 mM pimelate, enhanced by gene product of sfp, room temperature, 20 min, against empty vector control, FIG. 10
Experimental: A sequence encoding a HIS-tag was added to the genes from Segniliparus rugosus and Segniliparus rotundus that encode the carboxylate reductases of SEQ ID NOs: 4 and 7, respectively (see FIG. 7), such that N-terminal HIS tagged carboxylate reductases could be produced. Each of the modified genes was cloned into a pET Duet expression vector along with a sfp gene encoding a HIS-tagged phosphopantetheine transferase from Bacillus subtilis, both under the T7 promoter. Each expression vector was transformed into a BL21[DE3] E. coli host and the resulting recombinant E. coli strains were cultivated at 37° C. in a 250 mL shake flask culture containing 50 mL LB media and antibiotic selection pressure, with shaking at 230 rpm. Each culture was induced overnight at 37° C. using an auto-induction media.
The pellet from each induced shake flask culture was harvested via centrifugation. Each pellet was resuspended and lysed via sonication, and the cell debris was separated from the supernatant via centrifugation. […]
Enzyme activity assays (i.e., from pimelate to pimelate semialdehyde) were performed in triplicate in a buffer composed of a final concentration of 50 mM HEPES buffer (pH=7.5), 2 mM pimelate, 10 mM MgCl2, 1 mM ATP and 1 mM NADPH. […] The consumption of NADPH was monitored by absorbance at 340 nm.

[2] = Carboxylate reductase activity assay, pimelate semialdehyde to heptanedial (NADPH consumption); conditions: 2 mM pimelate semialdehyde, enhanced by gene product of sfp, room temperature, 20 min, against empty vector control, FIG. 13
Experimental: The N-terminal His-tagged carboxylate reductase of SEQ ID NO 7 (see Example 4 and FIG. 7) was assayed using pimelate semialdehyde as substrate. The enzyme activity assay was performed in triplicate in a buffer composed of a final concentration of 50 mM HEPES buffer (pH=7.5), 2 mM pimelate semialdehyde, 10 mM MgCl2, 1 mM ATP and 1 mM NADPH. The enzyme activity assay reaction was initiated by adding purified carboxylate reductase and phosphopantetheine transferase or the empty vector control to the assay buffer containing the pimelate semialdehyde and then incubated at room temperature for 20 min. The consumption of NADPH was monitored by absorbance at 340 nm.

[3] = Carboxylate reductase activity assay, N7-acetyl-7-aminoheptanoate to N7-acetyl-7-aminoheptanal (NADPH consumption); conditions: 2 mM N7-acetyl-7-aminoheptanoate, enhanced by gene product of sfp, room temperature, 20 min, against empty vector control, FIG. 12
Experimental: The activity of each of the N-terminal His-tagged carboxylate reductases of SEQ ID NOs: 3, 6, and 7 (see Examples 4, and FIG. 7) for converting N7-acetyl-7-aminoheptanoate to N7-acetyl-7-aminoheptanal was assayed in triplicate in a buffer composed of a final concentration of 50 mM HEPES buffer (pH=7.5), 2 mM N7-acetyl-7-aminoheptanoate, 10 mM MgCl2, 1 mM ATP, and 1 mM NADPH. The assays were initiated by adding purified carboxylate reductase and phosphopantetheine transferase or the empty vector control to the assay buffer containing the N7-acetyl-7-aminoheptanoate then incubated at room temperature for 20 min. The consumption of NADPH was monitored by absorbance at 340 nm.

B1: SEQ ID NO 7: Segniliparus rotundus carboxylate reductase, Genbank Accession No. ADG98140.1 (protein, listed as Segniliparus rotundus)
chain: MTQSHTQGPQASAAHSRLARRAAELLATDPQAAATLPDPEVVRQATRPGLRLAERVDAILSGYADRPALGQRSFQTVKDPITGRSSVELLPTFDTITYRELRERATAIASDLAHHPQAPAKPGDFLASIGFISVDYVAIDIAGVFAGLTAVPLQTGATLATLTAITAETAPTLFAASIEHLPTAVDAVLATPSVRRLLVFDYRAGSDEDREAVEAAKRKIADAGSSVLVDVLDEVIARGKSAPKAPLPPATDAGDDSLSLLIYTSGSTGTPKGAMYPERNVAHFWGGVWAAAFDEDAAPPVPAINITFLPLSHVASRLSLMPTLARGGLMHFVAKSDLSTLFEDLKLARPTNLFLVPRVVEMLYQHYQSELDRRGVQDGTREAEAVKDDLRTGLLGGRILTAGFGSAPLSAELAGFIESLLQIHLVDGYGSTEAGPVWRDGYLVKPPVTDYKLIDVPELGYFSTDSPHPRGELAIKTQTILPGYYKRPETTAEVFDEDGFYLTGDVVAQIGPEQFAYVDRRKNVLKLSQGEFVTLAKLEAAYSSSPLVRQLFVYGSSERSYLLAVIVPTPDALKKFGVGEAAKAALGESLQKIARDEGLQSYEVPRDFIIETDPFTVENGLLSDARKSLRPKLKEHYGERLEAMYKELADGQANELRDIRRGVQQRPTLETVRRAAAAMLGASAAEIKPDAHFTDLGGDSLSALTFSNFLHDLFEVDVPVGVIVSAANTLGSVAEHIDAQLAGGRARPTFATVHGKGSTTIKASDLTLDKFIDEQTLEAAKHLPKPADPPRTVLLTGANGWLGRFLALEWLERLAPAGGKLITIVRGKDAAQAKARLDAAYESGDPKLAGHYQDLAATTLEVLAGDFSEPRLGLDEATWNRLADEVDFISHPGALVNHVLPYNQLFGPNVAGVAEIIKLAITTRIKPVTYLSTVAVAAGVEPSALDEDGDIRTVSAERSVDEGYANGYGNSKWGGEVLLREAHDRTGLPVRVFRSDMILAHQKYTGQVNATDQFTRLVQSLLATGLAPKSFYELDAQGNRQRAHYDGIPVDFTAESITTLGGDGLEGYRSYNVFNPHRDGVGLDEFVDWLIEAGHPITRIDDYDQWLSRFETSLRGLPESKRQASVLPLLHAFARPGPAVDGSPFRNTVFRTDVQKAKIGAEHDIPHLGKALVLKYADDIKQLGLL
carboxylate reductase activity for converting pimelate to pimelate semialdehyde (NADPH consumption, absorbance at 340 nm) [1]: accepted pimelate as substrate | carboxylate reductase activity for converting pimelate semialdehyde to heptanedial (NADPH consumption, absorbance at 340 nm) [2]: accepted pimelate semialdehyde as substrate | carboxylate reductase activity for converting N7-acetyl-7-aminoheptanoate to N7-acetyl-7-aminoheptanal (NADPH consumption, absorbance at 340 nm) [3]: accepted N7-acetyl-7-aminoheptanoate as substrate
